{"source": "the supplement of paper PMC10567573", "parents": {"B1": {"name": "TMEM106C (parent)", "chain": "FTGRDSITCLTCQGTGYIPTEQVN"}, "B2": {"name": "INTS3 (parent)", "chain": "YPPLEGHVRQGVFSSLNHIVEKRV"}}}
{"variants_of": "B1", "experiment": "protein stability index of a GFP-peptide fusion (GPS, HEK-293T) (PSI 1-6); higher = more stable", "details": "c terminus: a fixed tail appended"}
{"variant": "FTGRDSITCLTCQGTGYIMTEQVN", "protein stability index": 2.15}
{"variant": "FTGRDSITCLTCQGTGYIFTEQVN", "protein stability index": 2.43}
{"variant": "FTGRDSITCLTCQGTGYIETEQVN", "protein stability index": 2.02}
{"variant": "FTGRDSITCLTCQGTGYISTEQVN", "protein stability index": 2.23}
{"variant": "FTGRDSITCLTCQGTGYICTEQVN", "protein stability index": 2.29}
{"variant": "FTGRDSITCLTCQGTGYIPTNQVN", "protein stability index": 2.39}
{"variant": "FTGRDSITCLTCQGTGYIPTTQVN", "protein stability index": 2.08}
{"variant": "FTGRDSITCLTCQGTGYIPTFQVN", "protein stability index": 1.22}
{"variant": "FTGRDSITCLTCQGTGYIPTQQVN", "protein stability index": 1.94}
{"variant": "FTGRDSITCLTCQGTGYIPTWQVN", "protein stability index": 1.84}
{"variant": "FTGRDSITCLTCQGTGYIPTGQVN", "protein stability index": 1.76}
{"variant": "FTGRDSITCLTCQGTGYIPTLQVN", "protein stability index": 2.03}
{"variant": "FTGRDSITCLTCQGTGYIPTVQVN", "protein stability index": 2.59}
{"variant": "FTGRDSITCLTCQGTGYIPTMQVN", "protein stability index": 1.75}
{"variant": "FTGRDSITCLTCQGTGYIPTDQVN", "protein stability index": 1.82}
{"variant": "FTGRDSITCLTCQGTGYIPTSQVN", "protein stability index": 1.94}
{"variant": "FTGRDSITCLTCQGTGYIPTCQVN", "protein stability index": 3.11}
{"variant": "FTGRDSITCLTCQGTGYIPTIQVN", "protein stability index": 2.16}
{"variant": "FTGRDSITCLTCQGTGYIPTHQVN", "protein stability index": 1.79}
{"variant": "FTGRDSITCLTCQGTGYIPTKQVN", "protein stability index": 1.65}
{"variant": "FTGRDSITCLTCQGTGYIPTAQVN", "protein stability index": 1.79}
{"variant": "FTGRDSITCLTCQGTGYIPTPQVN", "protein stability index": 2.2}
{"variant": "FTGRDSITCLTCQGTGYIPTRQVN", "protein stability index": 2.03}
{"variant": "FTGRDSITCLTCQGTGYIPTYQVN", "protein stability index": 2.67}
{"variants_of": "B2", "experiment": "protein stability index of a GFP-peptide fusion (GPS, HEK-293T) (PSI 1-6); higher = more stable", "details": "c terminus: a fixed tail appended"}
{"variant": "DPPLEGHVRQGVFSSLNHIVEKRV", "protein stability index": 3.85}
{"variant": "FPPLEGHVRQGVFSSLNHIVEKRV", "protein stability index": 2.88}
{"variant": "MPPLEGHVRQGVFSSLNHIVEKRV", "protein stability index": 3.59}
{"variant": "APPLEGHVRQGVFSSLNHIVEKRV", "protein stability index": 4.01}
{"variant": "SPPLEGHVRQGVFSSLNHIVEKRV", "protein stability index": 3.78}
{"variant": "NPPLEGHVRQGVFSSLNHIVEKRV", "protein stability index": 4.12}
{"variant": "QPPLEGHVRQGVFSSLNHIVEKRV", "protein stability index": 3.48}
{"variant": "RPPLEGHVRQGVFSSLNHIVEKRV", "protein stability index": 4.09}
{"variant": "EPPLEGHVRQGVFSSLNHIVEKRV", "protein stability index": 3.96}
{"variant": "CPPLEGHVRQGVFSSLNHIVEKRV", "protein stability index": 3.94}
{"variant": "TPPLEGHVRQGVFSSLNHIVEKRV", "protein stability index": 3.94}
{"variant": "GPPLEGHVRQGVFSSLNHIVEKRV", "protein stability index": 3.43}
{"variant": "PPPLEGHVRQGVFSSLNHIVEKRV", "protein stability index": 3.94}
{"variant": "KPPLEGHVRQGVFSSLNHIVEKRV", "protein stability index": 4.07}
{"variant": "LPPLEGHVRQGVFSSLNHIVEKRV", "protein stability index": 3.53}
{"variant": "HPPLEGHVRQGVFSSLNHIVEKRV", "protein stability index": 4.07}
{"variant": "YPMLEGHVRQGVFSSLNHIVEKRV", "protein stability index": 2.67}
{"variant": "YPQLEGHVRQGVFSSLNHIVEKRV", "protein stability index": 2.87}
{"variant": "YPELEGHVRQGVFSSLNHIVEKRV", "protein stability index": 2.86}
{"variant": "YPDLEGHVRQGVFSSLNHIVEKRV", "protein stability index": 3.11}
{"variant": "YPKLEGHVRQGVFSSLNHIVEKRV", "protein stability index": 3.04}
{"variant": "YPGLEGHVRQGVFSSLNHIVEKRV", "protein stability index": 2.9}
{"variant": "YPRLEGHVRQGVFSSLNHIVEKRV", "protein stability index": 2.63}
{"variant": "YPHLEGHVRQGVFSSLNHIVEKRV", "protein stability index": 2.9}
{"variant": "YPNLEGHVRQGVFSSLNHIVEKRV", "protein stability index": 2.04}
{"variant": "YPLLEGHVRQGVFSSLNHIVEKRV", "protein stability index": 2.98}
{"variant": "YPILEGHVRQGVFSSLNHIVEKRV", "protein stability index": 3.38}
{"variant": "YPTLEGHVRQGVFSSLNHIVEKRV", "protein stability index": 2.4}
{"variant": "YPWLEGHVRQGVFSSLNHIVEKRV", "protein stability index": 1.49}
{"variant": "YPSLEGHVRQGVFSSLNHIVEKRV", "protein stability index": 3.19}
{"variant": "YPFLEGHVRQGVFSSLNHIVEKRV", "protein stability index": 2.29}
{"variant": "YPCLEGHVRQGVFSSLNHIVEKRV", "protein stability index": 2.78}
{"variant": "YPVLEGHVRQGVFSSLNHIVEKRV", "protein stability index": 2.65}
{"variant": "YPALEGHVRQGVFSSLNHIVEKRV", "protein stability index": 2.43}
{"variant": "YPYLEGHVRQGVFSSLNHIVEKRV", "protein stability index": 2.08}
{"variant": "YPPTEGHVRQGVFSSLNHIVEKRV", "protein stability index": 1.79}
{"variant": "YPPFEGHVRQGVFSSLNHIVEKRV", "protein stability index": 3.06}
{"variant": "YPPDEGHVRQGVFSSLNHIVEKRV", "protein stability index": 2.46}
{"variant": "YPPVEGHVRQGVFSSLNHIVEKRV", "protein stability index": 3.04}
{"variant": "YPPHEGHVRQGVFSSLNHIVEKRV", "protein stability index": 3.01}
{"variant": "YPPSEGHVRQGVFSSLNHIVEKRV", "protein stability index": 2.58}
{"variant": "YPPAEGHVRQGVFSSLNHIVEKRV", "protein stability index": 2.7}
{"variant": "YPPGEGHVRQGVFSSLNHIVEKRV", "protein stability index": 1.35}
{"variant": "YPPIEGHVRQGVFSSLNHIVEKRV", "protein stability index": 2.74}
{"variant": "YPPWEGHVRQGVFSSLNHIVEKRV", "protein stability index": 2.91}
{"variant": "YPPMEGHVRQGVFSSLNHIVEKRV", "protein stability index": 2.45}
{"variant": "YPPEEGHVRQGVFSSLNHIVEKRV", "protein stability index": 1.08}
{"variant": "YPPQEGHVRQGVFSSLNHIVEKRV", "protein stability index": 2.74}
{"variant": "YPPCEGHVRQGVFSSLNHIVEKRV", "protein stability index": 2.21}
{"variant": "YPPNEGHVRQGVFSSLNHIVEKRV", "protein stability index": 2.19}
{"variant": "YPPKEGHVRQGVFSSLNHIVEKRV", "protein stability index": 2.64}
{"variant": "YPPREGHVRQGVFSSLNHIVEKRV", "protein stability index": 2.32}
{"variant": "YTPLEGHVRQGVFSSLNHIVEKRV", "protein stability index": 1.6}
{"variant": "YMPLEGHVRQGVFSSLNHIVEKRV", "protein stability index": 2.1}
{"variant": "YQPLEGHVRQGVFSSLNHIVEKRV", "protein stability index": 2.02}
{"variant": "YGPLEGHVRQGVFSSLNHIVEKRV", "protein stability index": 2.85}
{"variant": "YFPLEGHVRQGVFSSLNHIVEKRV", "protein stability index": 2.71}
{"variant": "YIPLEGHVRQGVFSSLNHIVEKRV", "protein stability index": 1.55}
{"variant": "YAPLEGHVRQGVFSSLNHIVEKRV", "protein stability index": 2.18}
{"variant": "YRPLEGHVRQGVFSSLNHIVEKRV", "protein stability index": 3.48}
{"variant": "YEPLEGHVRQGVFSSLNHIVEKRV", "protein stability index": 3.54}
{"variant": "YDPLEGHVRQGVFSSLNHIVEKRV", "protein stability index": 3.36}
{"variant": "YYPLEGHVRQGVFSSLNHIVEKRV", "protein stability index": 2.6}
{"variant": "YKPLEGHVRQGVFSSLNHIVEKRV", "protein stability index": 2.49}
{"variant": "YLPLEGHVRQGVFSSLNHIVEKRV", "protein stability index": 2.7}
{"variant": "YNPLEGHVRQGVFSSLNHIVEKRV", "protein stability index": 1.82}
{"variant": "YCPLEGHVRQGVFSSLNHIVEKRV", "protein stability index": 1.78}
{"variant": "YVPLEGHVRQGVFSSLNHIVEKRV", "protein stability index": 1.36}
{"variant": "YSPLEGHVRQGVFSSLNHIVEKRV", "protein stability index": 1.97}
{"variant": "YHPLEGHVRQGVFSSLNHIVEKRV", "protein stability index": 1.82}
